The results in this text go back to patent US20130210709A1 (ANCHOR THERAPEUTICS, published 2013).

Ends that are not written are not given here. * marks the point of attachment. Palmitoyl = CCCCCCCCCCCCCCCC(=O)* Some results are limits rather than exact numbers.

First the molecules themselves.
B1: CXCR4 i1 loop compound 149 (peptide)
peptide: Palmitoyl-MGYQKKLRSMTAKYRL-NH2
SMILES: CCCCCCCCCCCCCCCC(=O)N[C@@H](CCSC)C(=O)NCC(=O)N[C@@H](Cc1ccc(O)cc1)C(=O)N[C@@H](CCC(N)=O)C(=O)N[C@@H](CCCCN)C(=O)N[C@@H](CCCCN)C(=O)N[C@@H](CC(C)C)C(=O)N[C@@H](CCCNC(=N)N)C(=O)N[C@@H](CO)C(=O)N[C@@H](CCSC)C(=O)N[C@H](C(=O)N[C@@H](C)C(=O)N[C@@H](CCCCN)C(=O)N[C@@H](Cc1ccc(O)cc1)C(=O)N[C@@H](CCCNC(=N)N)C(=O)N[C@@H](CC(C)C)C(N)=O)[C@@H](C)O
B2: CXCR4 i1 loop compound 148 (peptide)
peptide: Palmitoyl-MGYQKKLRSMADKYRL-NH2
SMILES: CCCCCCCCCCCCCCCC(=O)N[C@@H](CCSC)C(=O)NCC(=O)N[C@@H](Cc1ccc(O)cc1)C(=O)N[C@@H](CCC(N)=O)C(=O)N[C@@H](CCCCN)C(=O)N[C@@H](CCCCN)C(=O)N[C@@H](CC(C)C)C(=O)N[C@@H](CCCNC(=N)N)C(=O)N[C@@H](CO)C(=O)N[C@@H](CCSC)C(=O)N[C@@H](C)C(=O)N[C@@H](CC(=O)O)C(=O)N[C@@H](CCCCN)C(=O)N[C@@H](Cc1ccc(O)cc1)C(=O)N[C@@H](CCCNC(=N)N)C(=O)N[C@@H](CC(C)C)C(N)=O
B3: CXCR4 i1 loop compound 147 (peptide)
peptide: Palmitoyl-MGYQKKLRSATDKYRL-NH2
SMILES: CCCCCCCCCCCCCCCC(=O)N[C@@H](CCSC)C(=O)NCC(=O)N[C@@H](Cc1ccc(O)cc1)C(=O)N[C@@H](CCC(N)=O)C(=O)N[C@@H](CCCCN)C(=O)N[C@@H](CCCCN)C(=O)N[C@@H](CC(C)C)C(=O)N[C@@H](CCCNC(=N)N)C(=O)N[C@@H](CO)C(=O)N[C@@H](C)C(=O)N[C@H](C(=O)N[C@@H](CC(=O)O)C(=O)N[C@@H](CCCCN)C(=O)N[C@@H](Cc1ccc(O)cc1)C(=O)N[C@@H](CCCNC(=N)N)C(=O)N[C@@H](CC(C)C)C(N)=O)[C@@H](C)O
B4: CXCR4 i1 loop compound 151 (peptide)
peptide: Palmitoyl-MGYQKKLRSMTDKARL-NH2
SMILES: CCCCCCCCCCCCCCCC(=O)N[C@@H](CCSC)C(=O)NCC(=O)N[C@@H](Cc1ccc(O)cc1)C(=O)N[C@@H](CCC(N)=O)C(=O)N[C@@H](CCCCN)C(=O)N[C@@H](CCCCN)C(=O)N[C@@H](CC(C)C)C(=O)N[C@@H](CCCNC(=N)N)C(=O)N[C@@H](CO)C(=O)N[C@@H](CCSC)C(=O)N[C@H](C(=O)N[C@@H](CC(=O)O)C(=O)N[C@@H](CCCCN)C(=O)N[C@@H](C)C(=O)N[C@@H](CCCNC(=N)N)C(=O)N[C@@H](CC(C)C)C(N)=O)[C@@H](C)O
B5: CXCR4 i1 loop compound 146 (peptide)
peptide: Palmitoyl-MGYQKKLRAMTDKYRL-NH2
SMILES: CCCCCCCCCCCCCCCC(=O)N[C@@H](CCSC)C(=O)NCC(=O)N[C@@H](Cc1ccc(O)cc1)C(=O)N[C@@H](CCC(N)=O)C(=O)N[C@@H](CCCCN)C(=O)N[C@@H](CCCCN)C(=O)N[C@@H](CC(C)C)C(=O)N[C@@H](CCCNC(=N)N)C(=O)N[C@@H](C)C(=O)N[C@@H](CCSC)C(=O)N[C@H](C(=O)N[C@@H](CC(=O)O)C(=O)N[C@@H](CCCCN)C(=O)N[C@@H](Cc1ccc(O)cc1)C(=O)N[C@@H](CCCNC(=N)N)C(=O)N[C@@H](CC(C)C)C(N)=O)[C@@H](C)O
B6: CXCR4 i1 loop compound 150 (peptide)
peptide: Palmitoyl-MGYQKKLRSMTDAYRL-NH2
SMILES: CCCCCCCCCCCCCCCC(=O)N[C@@H](CCSC)C(=O)NCC(=O)N[C@@H](Cc1ccc(O)cc1)C(=O)N[C@@H](CCC(N)=O)C(=O)N[C@@H](CCCCN)C(=O)N[C@@H](CCCCN)C(=O)N[C@@H](CC(C)C)C(=O)N[C@@H](CCCNC(=N)N)C(=O)N[C@@H](CO)C(=O)N[C@@H](CCSC)C(=O)N[C@H](C(=O)N[C@@H](CC(=O)O)C(=O)N[C@@H](C)C(=O)N[C@@H](Cc1ccc(O)cc1)C(=O)N[C@@H](CCCNC(=N)N)C(=O)N[C@@H](CC(C)C)C(N)=O)[C@@H](C)O
B7: CXCR4 i1 loop compound 152 (peptide)
peptide: Palmitoyl-MGYQKKLRSMTDKYAL-NH2
SMILES: CCCCCCCCCCCCCCCC(=O)N[C@@H](CCSC)C(=O)NCC(=O)N[C@@H](Cc1ccc(O)cc1)C(=O)N[C@@H](CCC(N)=O)C(=O)N[C@@H](CCCCN)C(=O)N[C@@H](CCCCN)C(=O)N[C@@H](CC(C)C)C(=O)N[C@@H](CCCNC(=N)N)C(=O)N[C@@H](CO)C(=O)N[C@@H](CCSC)C(=O)N[C@H](C(=O)N[C@@H](CC(=O)O)C(=O)N[C@@H](CCCCN)C(=O)N[C@@H](Cc1ccc(O)cc1)C(=O)N[C@@H](C)C(=O)N[C@@H](CC(C)C)C(N)=O)[C@@H](C)O
B8: CXCR4 i3 loop compound 104 (peptide)
peptide: Palmitoyl-IIISKLSHSKGHQKRKALKT
modifications: not fully specified (C-terminus); also: dual lipid, second lipid position not given here
B9: CXCR4 i3 loop compound 101 (peptide)
peptide: Palmitoyl-SKLSHSKGHQKRKALK-NH2
SMILES: CCCCCCCCCCCCCCCC(=O)N[C@@H](CO)C(=O)N[C@@H](CCCCN)C(=O)N[C@@H](CC(C)C)C(=O)N[C@@H](CO)C(=O)N[C@@H](Cc1c[nH]cn1)C(=O)N[C@@H](CO)C(=O)N[C@@H](CCCCN)C(=O)NCC(=O)N[C@@H](Cc1c[nH]cn1)C(=O)N[C@@H](CCC(N)=O)C(=O)N[C@@H](CCCCN)C(=O)N[C@@H](CCCNC(=N)N)C(=O)N[C@@H](CCCCN)C(=O)N[C@@H](C)C(=O)N[C@@H](CC(C)C)C(=O)N[C@@H](CCCCN)C(N)=O
B10: CXCR4 i3 loop compound 100 (peptide)
peptide: Palmitoyl-HSKGHQKRKALKTTVI-NH2
SMILES: CCCCCCCCCCCCCCCC(=O)N[C@@H](Cc1c[nH]cn1)C(=O)N[C@@H](CO)C(=O)N[C@@H](CCCCN)C(=O)NCC(=O)N[C@@H](Cc1c[nH]cn1)C(=O)N[C@@H](CCC(N)=O)C(=O)N[C@@H](CCCCN)C(=O)N[C@@H](CCCNC(=N)N)C(=O)N[C@@H](CCCCN)C(=O)N[C@@H](C)C(=O)N[C@@H](CC(C)C)C(=O)N[C@@H](CCCCN)C(=O)N[C@H](C(=O)N[C@H](C(=O)N[C@H](C(=O)N[C@H](C(N)=O)[C@@H](C)CC)C(C)C)[C@@H](C)O)[C@@H](C)O
B11: CXCR4 i3 loop compound 97 (peptide)
peptide: Palmitoyl-HSKGHQKRKALKT-NH2
SMILES: CCCCCCCCCCCCCCCC(=O)N[C@@H](Cc1c[nH]cn1)C(=O)N[C@@H](CO)C(=O)N[C@@H](CCCCN)C(=O)NCC(=O)N[C@@H](Cc1c[nH]cn1)C(=O)N[C@@H](CCC(N)=O)C(=O)N[C@@H](CCCCN)C(=O)N[C@@H](CCCNC(=N)N)C(=O)N[C@@H](CCCCN)C(=O)N[C@@H](C)C(=O)N[C@@H](CC(C)C)C(=O)N[C@@H](CCCCN)C(=O)N[C@H](C(N)=O)[C@@H](C)O
B12: CXCR4 i3 loop compound 96 (peptide)
peptide: Palmitoyl-SHSKGHQKRKALK-NH2
SMILES: CCCCCCCCCCCCCCCC(=O)N[C@@H](CO)C(=O)N[C@@H](Cc1c[nH]cn1)C(=O)N[C@@H](CO)C(=O)N[C@@H](CCCCN)C(=O)NCC(=O)N[C@@H](Cc1c[nH]cn1)C(=O)N[C@@H](CCC(N)=O)C(=O)N[C@@H](CCCCN)C(=O)N[C@@H](CCCNC(=N)N)C(=O)N[C@@H](CCCCN)C(=O)N[C@@H](C)C(=O)N[C@@H](CC(C)C)C(=O)N[C@@H](CCCCN)C(N)=O
B13: CXCR4 i3 loop compound 103 (peptide)
peptide: IIISKLSHSKGHQKRKALKT-NH2
modifications: not fully specified (N-terminus); also: dual lipid, backbone lipid not given here
B14: CXCR4 i3 loop compound 99 (peptide)
peptide: Palmitoyl-HSKGHQKRKALKTTV-NH2
SMILES: CCCCCCCCCCCCCCCC(=O)N[C@@H](Cc1c[nH]cn1)C(=O)N[C@@H](CO)C(=O)N[C@@H](CCCCN)C(=O)NCC(=O)N[C@@H](Cc1c[nH]cn1)C(=O)N[C@@H](CCC(N)=O)C(=O)N[C@@H](CCCCN)C(=O)N[C@@H](CCCNC(=N)N)C(=O)N[C@@H](CCCCN)C(=O)N[C@@H](C)C(=O)N[C@@H](CC(C)C)C(=O)N[C@@H](CCCCN)C(=O)N[C@H](C(=O)N[C@H](C(=O)N[C@H](C(N)=O)C(C)C)[C@@H](C)O)[C@@H](C)O
B15: CXCR4 i3 loop compound 105 (peptide)
peptide: KLSHSKGHQKRKALKTTVIL-NH2
modifications: not fully specified (N-terminus); also: dual lipid, backbone lipid not given here

The target in the first experiment is T1, CXCR4 receptor (human, UniProt P61073 1-352). The experiment in a line: cell-based or functional assay.
T1 sequence (P61073 whole entry): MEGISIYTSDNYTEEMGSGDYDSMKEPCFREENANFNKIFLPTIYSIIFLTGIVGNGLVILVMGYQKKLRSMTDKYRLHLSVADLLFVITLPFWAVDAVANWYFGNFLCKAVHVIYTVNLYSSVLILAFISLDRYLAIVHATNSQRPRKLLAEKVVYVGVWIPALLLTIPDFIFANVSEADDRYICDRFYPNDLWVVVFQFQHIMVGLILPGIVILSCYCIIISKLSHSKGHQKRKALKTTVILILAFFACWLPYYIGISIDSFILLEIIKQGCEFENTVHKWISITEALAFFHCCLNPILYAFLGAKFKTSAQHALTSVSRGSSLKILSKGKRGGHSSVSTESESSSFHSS
Turning to B1, the “IC50 (nM), calcium flux, CCRF-CEM” value was found to be 126 nM.

On to B2, for which the “IC50 (nM), calcium flux, CCRF-CEM” value was found to be 298 nM.

B3: the “IC50 (nM), calcium flux, CCRF-CEM” value was found to be 54 nM.

Regarding B4, the “IC50 (nM), calcium flux, CCRF-CEM” value was more than 10000 nM.

Take B5: the “IC50 (nM), calcium flux, CCRF-CEM” value turned out to be 170 nM.

In the case of B6, the “IC50 (nM), calcium flux, CCRF-CEM” value worked out at 313 nM.

As for B7, the “IC50 (nM), calcium flux, CCRF-CEM” value is more than 10000 nM.

The target of the next experiment is T1, CXCR4 receptor. Description: cell-based or functional assay. The source holds these as a separate data set.
Take B8: the “AUC (% of vehicle), chemotaxis, CEM, 1.0 uM” value (from here on “AUC (% of vehicle), chemotaxis”) was 36.4 % of vehicle; the “Max (% of vehicle), chemotaxis, CEM, 1.0 uM” value (shortened to “Max (% of vehicle), chemotaxis”) is 56.4 % of vehicle; the “Peak Ratio, chemotaxis, CEM, 1.0 uM” value was found to be 0.2.

As to B9, the “AUC (% of vehicle), chemotaxis” value was 75.5 % of vehicle; the “Max (% of vehicle), chemotaxis” value is 74.9 % of vehicle; the “Peak Ratio, chemotaxis, CEM, 1.0 uM” value was 1.

With B10, the “AUC (% of vehicle), chemotaxis” value was 49.3 % of vehicle; the “Max (% of vehicle), chemotaxis” value is 49.8 % of vehicle; the “Peak Ratio, chemotaxis, CEM, 1.0 uM” value stood at 0.04.

Consider B11, for which the “AUC (% of vehicle), chemotaxis” value was 48.9 % of vehicle; the “Max (% of vehicle), chemotaxis” value was 54.7 % of vehicle; the “Peak Ratio, chemotaxis, CEM, 1.0 uM” value stood at 0.2.

B12: the “AUC (% of vehicle), chemotaxis” value is 34.2 % of vehicle; the “Max (% of vehicle), chemotaxis” value is 63.1 % of vehicle; the “Peak Ratio, chemotaxis, CEM, 1.0 uM” value was found to be 1.

For B13, the “AUC (% of vehicle), chemotaxis” value is 26.3 % of vehicle; the “Max (% of vehicle), chemotaxis” value is 24.4 % of vehicle; the “Peak Ratio, chemotaxis, CEM, 1.0 uM” value came to 1.

Consider B14, for which the “AUC (% of vehicle), chemotaxis” value was 45 % of vehicle; the “Max (% of vehicle), chemotaxis” value was 64.5 % of vehicle; the “Peak Ratio, chemotaxis, CEM, 1.0 uM” value is 0.2.

Consider B15, for which the “AUC (% of vehicle), chemotaxis” value is 23.8 % of vehicle; the “Max (% of vehicle), chemotaxis” value was 42.9 % of vehicle; the “Peak Ratio, chemotaxis, CEM, 1.0 uM” value turned out to be 0.2.
